Laboratory results from the nanobody polyreactivity screen of Harvey et al. (2022).

Experiment: yeast display, Sf9 membrane polyspecificity reagent, FACS + sequencing; frameworks hold sequencing errors
Outline: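 After 36–48 hours of galactose induction, yeast (Saccharomyces cerevisiae BJ5465) displaying a synthetic nanobody library were stained at 4 °C for 1 hour with 10% biotinylated, detergent-solubilized Sf9 membrane reagent. Streptavidin microbeads enriched the stained cells before FACS sorting into low and high (top ~1%) gates on anti-HA and streptavidin fluorescence. Each clone's polyreactivity label reflects its gate of origin.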

| Sequence | polyreactivity (PSR sort gate) |
| --- | --- |
| QVQLVESGGGLVQAGGSLRLSCAASGLTFDVYAMGWYRQAPGKERELVAAISSIGGSTYYADSVKGRFTISRDNAKNTVYLQMNSLKPEDTAVYYCNADYFGGGDYWGQGTQVTVSS | low polyreactivity |
| QVQLVESGGGLVQAGGSLRLSCAASGLTFERYAMGSYIQAPGKERELVAAISGSGGSTYYADSVKGRFTISRDNAKNTVYLQMNSLKPEDTAVYYCAAYPTVWYDYWGQGTQVTVSS | high polyreactivity |
| QVQLVESGGGLVQAGGSLRLSCAASGLTFERYAMGWYRQAPGKERELVADITWSGGRTYYADSVKGRFTISRDNAKNTVYLQMNSLKPEDTAVYYCAADVYPGYVGSQEYDYWGQGTQVTVSS | low polyreactivity |
| QVQLVESGGGLVQAGGSLRLSCAASGLTFEYNAMGWYRQAPGKERELVAAITSGVNTYYADSVKGRFTISRDNAKNTVYLQMNSLKPEDTAVYYCAKYRWNWRYVSRGDSWGQGTQVTVSS | high polyreactivity |
| QVQLVESGGGLVQAGGSLRLSCAASGLTFEYYTMGWYIQAPGKERELVAAITSSGGSTYYADSVKGRFTISRDNAKNTVYLQMNSLKPVDTAVYYCAAYQIYQYDGTYDYWGQGTQVTVSS | low polyreactivity |
| QVQLVESGGGLVQAGGSLRLSCAASGLTFEYYTMGWYRQAPGKERELVAAITSSGGSTYYADSVKGRFTISRDNAKNTVYLQMNSLKPEDTAVYYCAADYYTWYGILYDYWGQGTQVTVSS | low polyreactivity |
| QVQLVESGGGLVQAGGSLRLSCAASGLTFFGNAMGWYRQAPGKERELVATISSGGGTSYADSVKGRFTISRDNAKNTVYLQMNSLKPEDTAVYFCAAEIVEEFDYWGQGTQVTVSS | low polyreactivity |
| QVQLVESGGGLVQAGGSLRLSCAASGLTFFKYTMGWYIQAPGKERELVAAINGGGSTNYADSVKGRFTISRDNAKNTVYLQMNSLKPEDTAVYYCAAGLPYGYDYWGQGTQVTVSS | low polyreactivity |
| QVQLVESGGGLVQAGGSLRLSCAASGLTFGDNAMGWYRQAPGKERELVAAITTSGPSTYYADSVKGRFTISRDNAKNTVYLQMNSLKPEDTAVYYCAADGLFYWVQYGYWGQGTQVTVSS | low polyreactivity |
| QVQLVESGGGLVQAGGSLRLSCAASGLTFGDYAMGWYRQAPGKEWELVAVITSSGSTYYADSVKGRFTISRDNAKNTVYLQMNSLKPEDTAVYYCATSAPAYRWRERYYYWGQGTQVTVSS | high polyreactivity |
| QVQLVESGGGLVQAGGSLRLSCAASGLTFGDYTMGWYRQAPGKERELVAAITWSGASTYYADSVKGRFTISRDNAKNTVYLQMNSLKPEDTAVYYCADERTPSYRAYDYWGQGTKVTVSS | low polyreactivity |
| QVQLVESGGGLVQAGGSLRLSCAASGLTFGGNAMGWYRQAPGKERELVAAISSGGSTNYADSVKGRFTISRDNAKNTVYLQMNSLKPEDTAVYYCAARDRPGNYFTVYGYWGQGTQVTVSS | low polyreactivity |
| QVQLVESGGGLVQAGGSLRLSCAASGLTFGGNAMGWYRQAPGKERELVAAISWSDDTTDYADSVKGRFTISRDNAKNTVYLQMNSLKPEDTAVYYCADRLPFEHVDYWGQGTQVTVSS | low polyreactivity |
| QVQLVESGGGLVQAGGSLRLSCAASGLTFGGNAMGWYRQAPGKERELVAAISWSDDTTDYADSVKGRFTISRDNAKNTVYVQMNSLKPEDTAVYYCAARLPFEHVDYWGQGTQVTVTS | low polyreactivity |
| QVQLVESGGGLVQAGGSLRLSCAASGLTFGRNAMGWYRQAPGKERELVAAISRSGGRTSYADSVKGRFTISRDYAKNTVYLQMNSLKPEDTSVYFCAALSDVYTHDYWGQGTQVTVSS | high polyreactivity |
| QVQLVESGGGLVQAGGSLRLSCAASGLTFGTYAMGWYRQAPGKERELVAAIRSGGSTNYADSVKGRFTISRDTAKNTVYLQMNILKPEDNAVYYCAKRYYWDRYYYWGQGTPVTVSS | high polyreactivity |
| QVQLVESGGGLVQAGGSLRLSCAASGLTFGWYAMGWYRQAPGKERELVASITRRSGSTYYADSVKGRFTISRDNAKNTVYLQMNSLKPEDTAVYYCNAVPGYVYYYQYWGQGTQVTVSS | high polyreactivity |
| QVQLVESGGGLVQAGGSLRLSCAASGLTFGYYAMGWYRQAPGKERELVAAISVSGSTYYADSVKGRFTISRDNAKNTVYLQMNSLKPEDTAVYYCNRAIGYRKELDYWGQGTQVTVSS | high polyreactivity |
| QVQLVESGGGLVQAGGSLRLSCAASGLTFGYYAMGWYRQAPGKERELVAVISGGGGTHYADSVKGRFTISRDNAKNTVYLQMNSLKPEDTAVYYCAARYRAQQIARYYYWGQGTQVTVSS | high polyreactivity |
| QVQLVESGGGLVQAGGSLRLSCAASGLTFGYYTMGWYRQAPGKERELVAAITYSGGSTYYADSVKGRFTISRDNAKNSVYLQMYSLKPEDTAVYYCAADGPVYTTYEYWGQGTQVTVSS | low polyreactivity |
| QVQLVESGGGLVQAGGSLRLSCAASGLTFGYYTMGWYRQAPGKERELVAAITYSGGSTYYADSVKGRFTISRDNAKNTVYLQMNSLKPEDTAVYYCAAEGPVYTTYEYWGQGTQVTVSS | low polyreactivity |
| QVQLVESGGGLVQAGGSLRLSCAASGLTFHRYAMGWYRPAPGKERELVAGISWSGASTYYADSVKGRFTISRDNAKNTVYLQMNSLKPEDTAVYYCAARRYYKYDWGQGTQVTVSS | high polyreactivity |

| Sequence | polyreactivity (PSR sort gate) |
| --- | --- |
| QVQLVESGGGLVQAGGSLRLSCAASGLTFIAYAMGWYRQAPGKERELVAAITWIGDSTYYADSVKGRFTISRDNAKNTVYLQMNSLKPEDTAVYYCATDWYGQYNGIYDYWGQGTQVTVSS | low polyreactivity |
| QVQLVESGGGLVQAGGSLRLSCAASGLTFIFNTMGWYRQAAGKERVLVAAISTSGGSTYYADSVKGRFTISRDNANNTVYLQMNSVKQEDTAFYYCAKEFKYWGYPYEYWGQGTLVTVSS | low polyreactivity |
| QVQLVESGGGLVQAGGSLRLSCAASGLTFIFYAMGWYRPAPGKERELVAAISVSGGSTYYADSVKGRFTISRDNAKNTVYLQMNSLKPEDTAVYYCAADREHFATYGPHMDYWGQGTQVTVSS | low polyreactivity |
| QVQLVESGGGLVQAGGSLRLSCAASGLTFIHYSMGWYRQAPGKEREFVAAISTNSGSTYYADSVKGRFTISRDNAKNTVYLQMNSLKPEDTAVYYCAARGLRWRIDGEYWGQGTQVTVSS | high polyreactivity |
| QVQLVESGGGLVQAGGSLRLSCAASGLTFIRYAMGWYRQAPGKQRELVAAISTSGGRTYYADSVKGRFTISRDNAKNNVYLQMNILTPEDTAVYYCNAYWRQGYYPEYYYWGQGTQVTVSS | high polyreactivity |
| QVQLVESGGGLVQAGGSLRLSCAASGLTFIYYAMGWYRQAPGKERELVAAISTSGASTYYADSVKGRFTISRDNAKNTVYLQMNSLKPEDTAVYYCNAEYFGEYRDYGYWGQGTQVTVSS | low polyreactivity |
| QVQLVESGGGLVQAGGSLRLSCAASGLTFIYYAMGWYRQAPGKERELVARINNGDNTYYADSVKGRFTISRDNAKNTVYLQMNRLNPEDTAVYYCAAARYSRLSRTRPGKYGYWGQGTQVTVSS | low polyreactivity |
| QVQLVESGGGLVQAGGSLRLSCAASGLTFIYYAMGWYRQARGKERELVAAISRSGGSTYYADSVKGRFTISRDNAKNTVYLQMNSLKPEDTAVYYCAADGTKYSGRVTGDYWGQGTQVTVSS | high polyreactivity |
| QVQLVESGGGLVQAGGSLRLSCAASGLTFKDNVMGWYRQAPGKERELVAAISSSGGSTYYADSVKGRFTLSRDNAKNTVYLQMNSLKPEDTAVYYCAAPTFSRYYYWGQGTQVTVSS | high polyreactivity |
| QVQLVESGGGLVQAGGSLRLSCAASGLTFKFNAMGWYRQAPGKERELVAAITYSGGSTYYADSVKGRFTISRDNAKNTVYLQMNSLKPDDTAVYYCAAEGWWGYYRYNYWGQGTQVTVSS | high polyreactivity |
| QVQLVESGGGLVQAGGSLRLSCAASGLTFKQYALGWYRQAPGKERELVAAITVSGGDTYYADSVKGRFTISRDNAKNSVYLQMNSLKPVDTAVYYCAADHFFWGYDYWGQGTQVTVSS | high polyreactivity |
| QVQLVESGGGLVQAGGSLRLSCAASGLTFKVYAMGWYRQAPGKERELVAAISWSGGSTYYADSVKGRFTISRDNAKNTVYLQMNSLKPEDTAVYYCAARGYAWYRGNYDYWGQGTQVTVSS | high polyreactivity |
| QVQLVESGGGLVQAGGSLRLSCAASGLTFKVYAMGWYRQAPGKERELVAAISWSGGSTYYADSVKGRFTISRDNAKNTVYLQMNSLKPEDTAVYYCAVEPSYYVVFFPYEYWGQGTQVTVSS | low polyreactivity |
| QVQLVESGGGLVQAGGSLRLSCAASGLTFKYYAMGWSRQAPGKESELVAAITSTGGRTYYADSVKGRFTISRDNAKNTVYLQMNSLKPEDTAVYYCAAYYVGSSKYDSWGQGTQVTVSS | low polyreactivity |
| QVQLVESGGGLVQAGGSLRLSCAASGLTFLYYAMGWYRQAPGKERELVAAISSRGGSTYYADSVKGRFKISRDNAKNTVYLQMNSLKPEDTAVYYCNAVRGDEYWGQGTQVTVSS | high polyreactivity |
| QVQLVESGGGLVQAGGSLRLSCAASGLTFNKNAMGWYRQAPGKEREFVAAISRRGGSTRYADSVKGRFTISRDNAKNTVYLQMHSLKPEDTAVYYCAKTAVDYYYSYDYWGQGTQVTVSS | high polyreactivity |
| QVQLVESGGGLVQAGGSLRLSCAASGLTFNSYDMGWYRQAPGKERELVAAISSGGVLPNYADSVKGRFTISRDNAKNTVYLQMNSLKPEDTAVYYCAAGYEYDVSDFDYWGQGTQVTVSS | low polyreactivity |
| QVQLVESGGGLVQAGGSLRLSCAASGLTFNVNPIVWYRQAPGKEREMVARITTSGGSTSYADSVKGRFTISRDNAKNTVYLQMNSLKPEDSAVYYCAADRARYYSEYDYWGQGTQVTVSS | low polyreactivity |
| QVQLVESGGGLVQAGGSLRLSCAASGLTFNWYAMGWYRQAPGKERELVAAINRRGVITYYADSVKGRFTISRDNAKNTVYLQMNSLKPEDTAVYYCNAAYGYVSRVYYLIEHDYWGQGTHVTVSS | high polyreactivity |
| QVQLVESGGGLVQAGGSLRLSCAASGLTFNYYDMGWYRQAPGKERELVAAISRSGTNTSYADSVKGRFTISRDNAKNTVYLQMNSLKPEDTAVYYCNAAGVYLAAGPYTANFNYNYWGQGTQVTVSS | low polyreactivity |
| QVQLVESGGGLVQAGGSLRLSCAASGLTFPFYTMGRYRRAPGKERELVAAISRRGGSTYYADSVKGRFTISRDNAKNTVYLQMNSLKPEDTAVYYCAADKYSWYDYWGQGTQVTVSS | low polyreactivity |
